Target: RNA polymerase I (13-subunit complex) (Homo sapiens (HEK293T), UniProt O95602;Q9H9Y6;O15160;P0DPB6;Q9P1U0;Q3B726;Q9GZS1;O15446;P19388;P61218;P52434;P53 …)
Experiment: cryo-EM structure; open complex, inactive state, 3.3 A; RRN3 in sample but not bound in this class; downstream duplex traced, bubble not stably bound at active site; EM buffer: 15 mM HEPES pH 7.5, 80 mM (NH4)2SO4, 5 mM MgCl2, 10 mM DTT; scaffold annealed in 20 mM HEPES pH 7.5, 12 mM MgCl2, 100 mM NaCl, 10 mM DTT (1x, from printed 2x); complex incubation temperature not given
Details: protein: native; copies: 1;1;1;1;1;1;1;1;1;1;1;1;1; 43-bp duplex with 12-nt mismatch bubble, blunt

B1: Pol I OC scaffold (template/nontemplate DNA, no RNA) (dsDNA)
DNA 1: GTACTGAATTAGACAATGCTCTGTGGCTCTAGTACCATGAGCG
DNA 2: CGCTCATGGTACTAGGCTTCGGAGAAGTTGTCTAATTCAGTAC
**Q.** Does B1 bind?
**A.** binds
